Source: US20210087243A1

Target: T1, linear CGQKLVG-conjugated-BSA
T1 sequence (peptide, conjugated to BSA): CGQKLVG
Test: SPR direct binding (MASS-1), linear peptide-BSA immobilised, supernatant flowed

B1: 305-61 (7E9) (antibody, mouse IgG3, V domains shown)
VH: QVQLQQSGAELVRPGASVTLSCKASGYTFTDYEMHWVKQTPVHGLEWIGAIDPETGDTAYNQEFKGKATLTADKSSSTAYMELRSLTSEDSAVYYCTSPIYYDYDWFAYWGHGTLVTVSA
VL: DIVMSQSPSSLAVSAGEKVTMSCKSSQSLLNNRTRKNYLAWYQQKPGQSPKLLIYWASTRESGVPDRFTGSGSGTDFTLTISSVQAEDLAVYYCKQSYNLRTFGGGTKLEIKR
Question: B1 was tested. Which binding response (RU) did it give?
Answer: 7.7 RU
